The record followed here is article doi:10.1101/784462, “Rv3722c governs aspartate-dependent nitrogen metabolism in Mycobacterium tuberculosis” (bioRxiv, 2019).

The series deals with the molecule itself. As to the kind of experiment: crystal structure; Rv3722c (~40 mg/mL) co-crystallised with 5 mM L-glutamic acid (PDB 6U78) or 10 mM L-kynurenine (PDB 6U7A), sitting drop vapor diffusion at 17 °C.

B1: Rv3722c (aspartate aminotransferase of Mycobacterium tuberculosis) (enzyme)
chain: SFDSLSPQELAALHARHQQDYAALQGMKLALDLTRGKPSAEQLDLSNQLLSLPGDDYRDPEGTDTRNYGGQHGLPGLRAIFAELLGIAVPNLIAGNNSSLELMHDIVAFSMLYGGVDSPRPWIQEQDGIKFLCPVPGYDRHFAITETMGIEMIPIPMLQDGPDVDLIEELVAVDPAIKGMWTVPVFGNPSGVTYSWETVRRLVQMRTAAPDFRLFWDNAYAVHTLTLDFPRQVDVLGLAAKAGNPNRPYVFASTSKITFAGGGVSFFGGSLGNIAWYLQYAGKKSIGPDKVNQLRHLRFFGDADGVRLHMLRHQQILAPKFALVAEVLDQRLSESKIASWTEPKGGYFISLDVLPGTARRTVALAKDVGIAVTEAGASFPYRKDPDDKNIRIAPSFPSVPDLRNAVDGLATCALLAATETLLNQGLASSAPNVR
notes: also called AspAT; not shown: His6, C-terminal, cleaved
On to B1, for which the binding result was “binds”.
